From the supplement of paper PMC10567573
± gives the standard deviation.

Experiment: protein stability index of a GFP-peptide fusion (GPS, HEK-293T) (PSI 1-6); higher = more stable
Conditions: c terminus: a fixed tail appended
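Further: 24-mer peptide tiles fused after GFP, lentivirally expressed, FACS-sorted into six equal bins by GFP/DsRed ratio, decoded by Illumina sequencing, PSI is the read-weighted mean bin number.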

Sequence | protein stability index (treatment: DMSO) | protein stability index (treatment: MLN4924 1 uM, 8 h)
LKKLAEENPDLQEAYIAKQKRLKS [GDAP1] | 4.38 ± 0.22 | 4.6 ± 0.28
GNGVHVCNVKYKRWALLSCRGKKP [KLHDC10] | 2.73 ± 0.35 | 2.94 ± 0.27
YALRAYLGYQAVPSGSSGSLSTSS [CEBPB] | 2.23 ± 0.28 | 2.36 ± 0.3
CLEGSINEHSAHCPHTPEFSVTGG [RPAIN] | 4.2 ± 0.41 | 4.07 ± 0.21
YPDQSPSEDWTMEERFRPLTFHGL [CLCN6] | 3.23 ± 0.18 | 3.37 ± 0.18
WSLYPSDSQVSEEVKTRHSEKSQR [CHGB] | 4.78 ± 0.17 | 4.8 ± 0.19
NRIKGCHDHLTLSVSRPEGRSWPS [PDLIM4] | 2.87 ± 0.25 | 3.02 ± 0.18
ENDSTPTVSTSEVTSQQEPQIPVD [TAF7L] | 5.53 ± 0.2 | 5.59 ± 0.26
DCLAAWEEWLLVGTKQGHLLLYRI [VPS39] | 2.92 ± 1.1 | 2.51 ± 0.32
PPTRGPPPSYGGSSRYDDYSSSRD [RBMX] | 5.05 ± 0.23 | 4.93 ± 0.19
RCCGAASYQDWQQNLYFNCSSPGV [TSPAN10] | 2.37 ± 0.42 | 2.33 ± 0.66
EYLLSFPAGKTPVPAGEEEGELGE [VPS39] | 5.25 ± 0.43 | 5.31 ± 0.071
VSGLDSSYLREQMLNEPLVREIVK [GAN] | 3.14 ± 0.26 | 2.96 ± 0.25
PVIAAPSMWTRPQIKDFKEKIQQD [ACBD3] | 4.59 ± 0.32 | 4.41 ± 0.4
KFLAKVNGSDPRSFPLWYEEALKD [MAGEA10] | 2.62 ± 0.39 | 3.06 ± 0.4
STEVQAHPYSTTFQESASTPETRA [TEKT4] | 5.23 ± 0.17 | 5.16 ± 0.1
DDDKGDSKETRLTLMEEVLLLGLK [GOLPH3] | 3.16 ± 0.36 | 3.65 ± 0.32
VRRGLAGATTLGDMIYVSGGFDGS [KLHL12] | 2.94 ± 0.56 | 2.87 ± 0.15
RLYVDKSLNLSTEFISSTKRPYAK [SERPINB5] | 3.41 ± 0.76 | 3.46 ± 0.5
TQEGAKDLEVDMNKTEVTPRLWTT [ACSBG2] | 3.55 ± 0.62 | 4.03 ± 0.68
VAHVESLQEKSQCALEEYVRSQYP [NR2F2] | 3.6 ± 0.28 | 3.96 ± 0.25
GSLPWQGLKADTLKERYQKIGDTK [CSNK1G1] | 4.05 ± 0.083 | 4.19 ± 0.29
FVEEIKKLATQHKQLISQTKKKQW [ZMYND11] | 2.73 ± 0.77 | 2.13 ± 0.33

Sequence | protein stability index (treatment: DMSO) | protein stability index (treatment: MLN4924 1 uM, 8 h)
NATLTQYQLLATHVPTVWAIDQYR [RHOBTB2] | 2.61 ± 0.58 | 2.48 ± 0.31
KRRKDSEEEAASPEGKRVPKRLRC [FANCE] | 5.08 ± 0.3 | 5.12 ± 0.26
EDLELKKKIFAQLDSIIDDRVILS [CRYL1] | 3.28 ± 0.26 | 3.01 ± 0.36
DFKEDLKKFRTKSRTWAGEKSKRE [CDC25A] | 4.88 ± 0.52 | 4.92 ± 0.15
SIDLGTAHSAAVTASGDCYTFGSN [NEK8] | 3.79 ± 0.31 | 4.06 ± 0.35
RRGRMALCGQAAGAASLPSELIVH [FBXO33] | 2.96 ± 0.25 | 2.78 ± 0.32
LGVGLGVEISRRLRHSNPRADPLV [SPNS1] | 3.082 ± 0.029 | 2.96 ± 0.22
AARISNKGKFSTDTKGKPTSRTQV [ZC2HC1A] | 3.91 ± 0.38 | 4.19 ± 0.39
NTELQDVQRIMVANIEEVLQRGEA [SEC22B] | 4.7 ± 0.36 | 4.71 ± 0.25
KKAYDYFQAKKIPIVSSLADPLDT [PDZK1] | 3.64 ± 0.23 | 3.88 ± 0.35
PHLMPSNCGLEEKIANLGSCNDSK [S100A14] | 2.61 ± 0.9 | 1.66 ± 0.27
SEASIASNLQAMSTQMFQTKRCFR [SMG5] | 3.94 ± 0.13 | 4.08 ± 0.15
MLWVQRKRRRKETSECPSDKDKSP [C10orf62] | 3.2 ± 0.42 | 3.66 ± 0.43
FHIMKRKFTNKEWETIRSFKDEWT [AASDHPPT] | – | 2.09 ± 0.16
MSLKCLAARAVRANDINYQDQIPR [FEM1B] | 3.49 ± 0.34 | 3.52 ± 0.17
GSSIPWNHLPDPEIFRQRFRQFGY [ZNF24] | 2.49 ± 0.25 | 2.66 ± 0.14
TMEYSMVGRTVLDMLIREVVEKRL [RSPH3] | 2.68 ± 0.54 | 2.64 ± 0.3
HWTSAPLTEASAHSHPPEIKDQGG [MAP2] | 5.14 ± 0.14 | 5.18 ± 0.18
MASSPIQPRKGGADWLGLKDEDLD [FBF1] | 5.12 ± 0.37 | 5.07 ± 0.26
VDFTFVENVVHGHILAAEQLSRDS [NSDHL] | 2.37 ± 0.36 | 2.26 ± 0.4
RLQHICELFIITQLQSMPSRELAS [RHOBTB3] | 3.19 ± 0.5 | 3.33 ± 0.63
STLKEVKPTVFIGVPQIWEKIHEM [ACSBG2] | 2.1 ± 0.24 | 2.27 ± 0.31
